{
  "source": "paper PMC4832279",
  "about": "“Characterisation of Shigella Spa33 and Thermotoga FliM/N reveals a new model for C‐ring assembly in T3SS” (Molecular Microbiology, 2015)",
  "molecules": {"B1": {"name": "Spa33-C (alternative translation product of spa33, residues 192-293) (domain or fragment)", "chain": "MNDNNEAKINLSESNGESEHTEVSLALFNYDDINVKVDFILLEKNMTINELKMYVENELFKFPDDIVKHVNIKVNGSLVGHGELVSIEDGYGIEISSWMVKE", "modifications": "formylmethionine at the N-terminus (expected from the measured mass)", "notes": "Spa33 (SctQ), Shigella flexneri, residues 192-293; translated from an internal GTG start codon; Forms a homodimer (Spa33-C2) in the native mass spectrum; also called short variant of Spa33; source: E. coli B834 (DE3), made from the internal start site of pET28b-Spa33, co-purified with His-Spa33-FL (Ni-NTA, SEC)"}, "B2": {"name": "Spa33-C(Y221R) (domain or fragment)", "chain": "MNDNNEAKINLSESNGESEHTEVSLALFNRDDINVKVDFILLEKNMTINELKMYVENELFKFPDDIVKHVNIKVNGSLVGHGELVSIEDGYGIEISSWMVKE", "modifications": "formylmethionine at the N-terminus (as told for wild-type Spa33-C)", "notes": "Spa33 (SctQ), Shigella flexneri, residues 192-293 (Spa33-C), Y221R; also called Spa33-C of Spa33-FL/C2(Y221R)"}, "B3": {"name": "Spa33 208-293 (C-terminal 86 residues of Spa33) (domain or fragment)", "chain": "ESEHTEVSLALFNYDDINVKVDFILLEKNMTINELKMYVENELFKFPDDIVKHVNIKVNGSLVGHGELVSIEDGYGIEISSWMVKE", "notes": "Spa33 (SctQ), Shigella flexneri, residues 208-293; Two copies of the dimer in the asymmetric unit; also called SpoA2 domain of Spa33; source: E. coli B834 (DE3), purified (Ni-NTA, carboxypeptidase A, SEC); not shown: His tag, C-terminal, cleaved"}},
  "key": {"[1]": {"molecular_target": "Spa33-FL(CTD) (construct comprising only SpoA1 and SpoA2 of Spa33-FL) (Shigella flexneri)", "test": "native MS; purified proteins or co-expressed, co-purified complexes, buffer-exchanged in 200 mM ammonium acetate pH 7.5; non-denaturing conditions; Synapt HDMS"}, "[2]": {"molecular_target": "Spa33-C (co-expressed from pRSFDuet-Spa33-C with Spa33-FL(CTD)) (Shigella flexneri) (UniProt P0A1K9)", "test": "native MS; purified proteins or co-expressed, co-purified complexes, buffer-exchanged in 200 mM ammonium acetate pH 7.5; non-denaturing conditions; Synapt HDMS"}, "[3]": {"molecular_target": "Spa33-C (expressed alone from pET28b-Spa33-C, tag removed, 15N-labelled) (Shigella flexneri) (UniProt P0A1K9)", "test": "native MS; purified proteins or co-expressed, co-purified complexes, buffer-exchanged in 200 mM ammonium acetate pH 7.5; non-denaturing conditions; Synapt HDMS"}, "[4]": {"molecular_target": "Spa33-Cmbp (Spa33-C with a C-terminal maltose binding protein fusion) (Shigella flexneri) (UniProt P0A1K9)", "test": "native MS; purified proteins or co-expressed, co-purified complexes, buffer-exchanged in 200 mM ammonium acetate pH 7.5; non-denaturing conditions; Synapt HDMS"}, "[5]": {"molecular_target": "Spa33-FL expressed from pETDuet-Spa33ΔRBS (N-terminal His-tag) (Shigella flexneri) (UniProt P0A1K9)", "test": "native MS; purified proteins or co-expressed, co-purified complexes, buffer-exchanged in 200 mM ammonium acetate pH 7.5; non-denaturing conditions; Synapt HDMS"}, "[6]": {"molecular_target": "Spa33-Cstrep (Spa33-C with an eight residue C-terminal Strep-tag) (Shigella flexneri) (UniProt P0A1K9)", "test": "native MS; purified proteins or co-expressed, co-purified complexes, buffer-exchanged in 200 mM ammonium acetate pH 7.5; non-denaturing conditions; Synapt HDMS"}, "[7]": {"molecular_target": "Spa33-Ctrx (Spa33-C with a C-terminal thioredoxin fusion) (Shigella flexneri) (UniProt P0A1K9)", "test": "native MS; purified proteins or co-expressed, co-purified complexes, buffer-exchanged in 200 mM ammonium acetate pH 7.5; non-denaturing conditions; Synapt HDMS"}, "[8]": {"molecular_target": "Spa33-FL/C2 (1:2 complex of His-Spa33-FL and Spa33-C) (Shigella flexneri) (UniProt P0A1K9)", "test": "native MS; purified proteins or co-expressed, co-purified complexes, buffer-exchanged in 200 mM ammonium acetate pH 7.5; non-denaturing conditions; Synapt HDMS"}, "[9]": {"molecular_target": "Spa33-FL/C2(Y221R) (1:2 complex with Y221R in Spa33-FL and in both copies of Spa33-C) (Shigella flexneri) (UniProt P0A1K9)", "test": "native MS; purified proteins or co-expressed, co-purified complexes, buffer-exchanged in 200 mM ammonium acetate pH 7.5; non-denaturing conditions; Synapt HDMS"}, "[10]": {"molecular_target": "Spa33-FL/Cstrep2 (1:2 complex of Spa33-FL and Spa33-Cstrep) (Shigella flexneri) (UniProt P0A1K9)", "test": "native MS; purified proteins or co-expressed, co-purified complexes, buffer-exchanged in 200 mM ammonium acetate pH 7.5; non-denaturing conditions; Synapt HDMS"}, "[11]": {"molecular_target": "Spa33-FL/Ctrx2 (1:2 complex of Spa33-FL and Spa33-Ctrx) (Shigella flexneri) (UniProt P0A1K9)", "test": "native MS; purified proteins or co-expressed, co-purified complexes, buffer-exchanged in 200 mM ammonium acetate pH 7.5; non-denaturing conditions; Synapt HDMS"}, "[12]": {"molecular_target": "Thermotoga maritima FliN (C-terminal 132 residues of FliY) (Thermotoga maritima)", "test": "native MS; purified proteins or co-expressed, co-purified complexes, buffer-exchanged in 200 mM ammonium acetate pH 7.5; non-denaturing conditions; Synapt HDMS"}, "[13]": {"molecular_target": "Thermotoga maritima FliM with an N-terminal His-tag (Thermotoga maritima) (UniProt Q9WZE6)", "sequence (Q9WZE6 whole entry)": "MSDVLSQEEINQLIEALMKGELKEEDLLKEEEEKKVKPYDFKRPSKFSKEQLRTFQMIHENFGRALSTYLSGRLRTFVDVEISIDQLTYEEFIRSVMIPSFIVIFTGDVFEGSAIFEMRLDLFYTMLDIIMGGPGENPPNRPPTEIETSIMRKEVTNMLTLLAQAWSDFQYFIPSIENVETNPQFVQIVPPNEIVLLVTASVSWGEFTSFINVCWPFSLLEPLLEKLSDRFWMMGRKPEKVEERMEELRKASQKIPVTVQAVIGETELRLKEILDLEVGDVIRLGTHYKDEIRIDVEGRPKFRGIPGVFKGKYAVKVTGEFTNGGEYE", "test": "native MS; purified proteins or co-expressed, co-purified complexes, buffer-exchanged in 200 mM ammonium acetate pH 7.5; non-denaturing conditions; Synapt HDMS"}, "[14]": {"molecular_target": "the molecule itself", "test": "native MS; purified proteins or co-expressed, co-purified complexes, buffer-exchanged in 200 mM ammonium acetate pH 7.5; non-denaturing conditions; Synapt HDMS"}, "[15]": {"molecular_target": "T1, Spa33-FL (full-length Spa33 with an N-terminal His-tag) (Shigella flexneri, UniProt P0A1K9 1-293)", "T1 construct": "Spa33 (SctQ), Shigella flexneri, full length; 293 residues by the printed range 192-293 at the extreme C-terminus; also called SctQ; His-Spa33-FL; source: E. coli B834 (DE3), from pET28b-Spa33, purified with Spa33-C (Ni-NTA, SEC)", "T1 sequence": "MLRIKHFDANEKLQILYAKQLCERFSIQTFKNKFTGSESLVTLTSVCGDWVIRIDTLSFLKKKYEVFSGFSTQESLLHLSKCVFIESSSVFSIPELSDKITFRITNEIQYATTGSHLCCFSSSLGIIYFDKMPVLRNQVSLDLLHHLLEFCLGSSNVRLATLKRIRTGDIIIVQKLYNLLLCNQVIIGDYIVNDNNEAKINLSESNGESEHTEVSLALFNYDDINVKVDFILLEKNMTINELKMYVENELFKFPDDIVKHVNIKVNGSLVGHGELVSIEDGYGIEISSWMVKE", "test": "native MS; purified proteins or co-expressed, co-purified complexes, buffer-exchanged in 200 mM ammonium acetate pH 7.5; non-denaturing conditions; Synapt HDMS", "conditions": "both partners purified"}, "[16]": {"molecular_target": "T2, Spa33-FL(Y221R) with an N-terminal His-tag (Shigella flexneri, UniProt P0A1K9 1-293, Y221R)", "T2 construct": "Spa33 (SctQ), Shigella flexneri, full length, Y221R in the SpoA2 domain; also called Spa33-FL of Spa33-FL/C2(Y221R); source: E. coli B834 (DE3), from pET28b-Spa33(Y221R), purified with Spa33-C(Y221R) (Ni-NTA, SEC)", "T2 sequence": "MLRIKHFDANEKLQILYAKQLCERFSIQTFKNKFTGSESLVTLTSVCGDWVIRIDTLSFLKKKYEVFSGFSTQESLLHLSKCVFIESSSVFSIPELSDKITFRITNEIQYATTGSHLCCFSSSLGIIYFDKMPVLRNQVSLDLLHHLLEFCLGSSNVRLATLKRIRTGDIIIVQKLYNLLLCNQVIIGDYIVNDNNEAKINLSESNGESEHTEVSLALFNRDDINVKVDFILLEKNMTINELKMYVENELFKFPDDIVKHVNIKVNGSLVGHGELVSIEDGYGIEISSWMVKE", "test": "native MS; purified proteins or co-expressed, co-purified complexes, buffer-exchanged in 200 mM ammonium acetate pH 7.5; non-denaturing conditions; Synapt HDMS", "conditions": "both partners purified"}, "[17]": {"molecular_target": "the molecule itself", "test": "crystal structure; 2.3 Å; 10 mg/ml Spa33 208-293, 21°C, sitting drop, 10% isopropanol, 0.1 M Na HEPES pH 7.0, 10% PEG 4000"}},
  "note": "“And” between values parts separate entries of the source, which are not always exact repeats. Identical values can stand only once.",
  "data": [
    {"molecule": "Spa33-C (co-expressed from pRSFDuet-Spa33-C with Spa33-FL(CTD)) (from UniProt P0A1K9 192-293) (domain or fragment)", "values": [
      {"measurement": "stoichiometry N", "setting": "[1]", "result": 2},
      {"measurement": "stoichiometry N", "setting": "[2]", "result": 2}
    ]},
    {"molecule": "Spa33-C (expressed alone from pET28b-Spa33-C, tag removed, 15N-labelled) (from UniProt P0A1K9 192-293) (domain or fragment)", "values": [
      {"measurement": "stoichiometry N", "setting": "[3]", "result": 2}
    ]},
    {"molecule": "Spa33-Cmbp (Spa33-C with a C-terminal maltose binding protein fusion) (from UniProt P0A1K9 192-293) (domain or fragment)", "values": [
      {"measurement": "stoichiometry N", "setting": "[4]", "result": 2},
      {"measurement": "stoichiometry N", "setting": "[5]", "result": 2}
    ]},
    {"molecule": "Spa33-Cstrep (Spa33-C with an eight residue C-terminal Strep-tag) (from UniProt P0A1K9 192-293) (domain or fragment)", "values": [
      {"measurement": "stoichiometry N", "setting": "[6]", "result": 2},
      {"measurement": "stoichiometry N", "setting": "[5]", "result": 2}
    ]},
    {"molecule": "Spa33-Ctrx (Spa33-C with a C-terminal thioredoxin fusion) (from UniProt P0A1K9 192-293) (domain or fragment)", "values": [
      {"measurement": "stoichiometry N", "setting": "[7]", "result": 2},
      {"measurement": "stoichiometry N", "setting": "[5]", "result": 2}
    ]},
    {"molecule": "Spa33-FL(CTD) (construct comprising only SpoA1 and SpoA2 of Spa33-FL) (domain or fragment)", "values": [
      {"measurement": "stoichiometry N", "setting": "[1]", "result": "2 and 3"}
    ]},
    {"molecule": "Spa33-FL/C2 (1:2 complex of His-Spa33-FL and Spa33-C) (from UniProt P0A1K9 1-293; P0A1K9 192-293)", "values": [
      {"measurement": "stoichiometry N", "setting": "[8]", "result": "2 and 4 and 6"}
    ]},
    {"molecule": "Spa33-FL/C2(Y221R) (1:2 complex with Y221R in Spa33-FL and in both copies of Spa33-C) (from UniProt P0A1K9 1-293; P0A1K9 192-293)", "values": [
      {"measurement": "stoichiometry N", "setting": "[9]", "result": 2}
    ]},
    {"molecule": "Spa33-FL/Cstrep2 (1:2 complex of Spa33-FL and Spa33-Cstrep) (from UniProt P0A1K9 1-293; P0A1K9 192-293)", "values": [
      {"measurement": "stoichiometry N", "setting": "[10]", "result": "2 and 4"}
    ]},
    {"molecule": "Spa33-FL/Ctrx2 (1:2 complex of Spa33-FL and Spa33-Ctrx) (from UniProt P0A1K9 1-293; P0A1K9 192-293)", "values": [
      {"measurement": "stoichiometry N", "setting": "[11]", "result": 2}
    ]},
    {"molecule": "Thermotoga maritima FliN (C-terminal 132 residues of FliY) (domain or fragment)", "values": [
      {"measurement": "stoichiometry N", "setting": "[12]", "result": 2},
      {"measurement": "stoichiometry N", "setting": "[13]", "result": 3}
    ]},
    {"molecule": "Thermotoga maritima FliY, full length (natural protein)", "values": [
      {"measurement": "stoichiometry N", "setting": "[13]", "result": 1}
    ]},
    {"molecule": "B1", "values": [
      {"measurement": "stoichiometry N", "setting": "[14]", "result": 2},
      {"measurement": "stoichiometry N", "setting": "[15]", "result": 2}
    ]},
    {"molecule": "B2", "values": [
      {"measurement": "stoichiometry N", "setting": "[16]", "result": 2}
    ]},
    {"molecule": "B3", "values": [
      {"measurement": "binding result", "setting": "[17]", "result": "binds"}
    ]}
  ]
}
